In general, IC50 refers to the midpoint of a concentration-inhibition curve.

Drawing on US20230055235, “ANTI-CANCER IMMUNOTHERAPEUTIC COMPOSITION FOR TREATING CANCER” (INTEROLIGO CORPORATION., published 2023), this text covers IC50 for one molecule.

The target of this series is PD-L1 (programmed death-ligand 1) (UniProt Q9NZQ7 Q9NZQ7:19-238). Kind of series: inhibition; PD-1/PD-L1 binding ELISA. The method, then: PD-1/PD-L1 binding inhibition of the synthetic fragment aptamer was determined by conducting a purified protein-based test. Purified protein-based PD-1/PD-L1 binding inhibition test (BPS, USA) was conducted by ELISA method based on horseradish peroxidase (HRP). First, purified PD-L1 protein according to the product manual was fixed on a 96 well plate, and then each well was washed with Immuno Buffer 1 for a total of 3 times in order to remove unbound PD-L1 protein. Aptamers were prepared in a selection buffer for each experimental concentration and slowly cooled from 95° C. to 37° C. by 0.1° C. per second. 5 μL of the aptamer was added to the well to which PD-L1 protein was fixed, followed by adding 20 μL of Biotin-bound PD-1 protein prepared according to the corresponding instructions to each well again. […] After adding 100 μL of the HRP substrate mixture to the well, from which the supernatant was removed, a fluorescent intensity was measured using a luminometer so as to determine the inhibition of PD-1/PD-L1 binding. IC₅₀ (50% inhibitory concentration) was calculated using the online tool.
Aptamer PD-1/PD-L1 binding inhibitory activity described in Table 6 of Example 1.3.1 was measured in the same manner as in Example 1.2.2.
For orientation: In an ELISA, binding on a coated surface is turned into a signal by an enzyme label.

PD-L1 (programmed death-ligand 1), sequence (Q9NZQ7 19-238, one chain of several): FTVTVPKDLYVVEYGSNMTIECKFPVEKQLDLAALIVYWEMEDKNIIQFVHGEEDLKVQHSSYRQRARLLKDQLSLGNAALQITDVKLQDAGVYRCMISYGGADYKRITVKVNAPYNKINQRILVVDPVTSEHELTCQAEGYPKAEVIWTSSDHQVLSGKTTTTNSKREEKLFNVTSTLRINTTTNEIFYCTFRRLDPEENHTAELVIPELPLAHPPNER

B1: PL021 (ssDNA)
DNA: AAGTTTTTGATTGTACCTTAGTG
modifications: Bz-dU at every n
Molecule B1 showed a 50% inhibitory concentration (IC50) of 27.7 nM.
